Assay results from US9187525B2, “Methods of treating ophthalmic diseases using NPR-B agonists” (Shire Orphan Therapies GmbH, dated 2015).
Numbered stars: 1 amine (or outer) side, 2 acyl side, 3 side chain; on linkers, the order of the positions; unused ones are H or OH. Square brackets hold non-standard residues; d marks the D form. Ends that are not written are not given here. * marks the point of attachment. Ebe = (R)-2-amino-3-(methylsulfanyl)propanoic acid, CSC[C@H](N[*:1])C(=O)[*:2]; Sni = (S)-nipecotic acid, O=C([C@H]1CCCN([*:1])C1)[*:2]; Phe(3-CF3) = N[C@@H](Cc1cccc(C(F)(F)F)c1)C(=O)O; Phe(4-Cl) = N[C@@H](Cc1ccc(Cl)cc1)C(=O)O; Phe(3-Me) = Cc1cccc(C[C@H](N)C(=O)O)c1; Hyp = O=C(O)[C@@H]1C[C@@H](O)CN1; NMeF = CN[C@@H](Cc1ccccc1)C(=O)O; 2Thi = N[C@@H](Cc1cccs1)C(=O)O; 3Thi = N[C@@H](Cc1ccsc1)C(=O)O; NMeL = CN[C@@H](CC(C)C)C(=O)O; Tle = CC(C)(C)[C@H](N)C(=O)O; hLeu = CC(C)CC[C@H](N)C(=O)O; dNle = CCCC[C@@H](N)C(=O)O; hSer = N[C@@H](CCO)C(=O)O; Octanoyl = CCCCCCCC(=O)*; dAbu = CC[C@@H](N)C(=O)O; dDap = NC[C@@H](N)C(=O)O; Nva = CCC[C@H](N)C(=O)O; Hexanoyl = CCCCCC(=O)*; asn = not defined here; leu = not defined here; nle = not defined here; Occ = octanoic acid

T1: natriuretic peptide receptor-B (human)
T1 chain: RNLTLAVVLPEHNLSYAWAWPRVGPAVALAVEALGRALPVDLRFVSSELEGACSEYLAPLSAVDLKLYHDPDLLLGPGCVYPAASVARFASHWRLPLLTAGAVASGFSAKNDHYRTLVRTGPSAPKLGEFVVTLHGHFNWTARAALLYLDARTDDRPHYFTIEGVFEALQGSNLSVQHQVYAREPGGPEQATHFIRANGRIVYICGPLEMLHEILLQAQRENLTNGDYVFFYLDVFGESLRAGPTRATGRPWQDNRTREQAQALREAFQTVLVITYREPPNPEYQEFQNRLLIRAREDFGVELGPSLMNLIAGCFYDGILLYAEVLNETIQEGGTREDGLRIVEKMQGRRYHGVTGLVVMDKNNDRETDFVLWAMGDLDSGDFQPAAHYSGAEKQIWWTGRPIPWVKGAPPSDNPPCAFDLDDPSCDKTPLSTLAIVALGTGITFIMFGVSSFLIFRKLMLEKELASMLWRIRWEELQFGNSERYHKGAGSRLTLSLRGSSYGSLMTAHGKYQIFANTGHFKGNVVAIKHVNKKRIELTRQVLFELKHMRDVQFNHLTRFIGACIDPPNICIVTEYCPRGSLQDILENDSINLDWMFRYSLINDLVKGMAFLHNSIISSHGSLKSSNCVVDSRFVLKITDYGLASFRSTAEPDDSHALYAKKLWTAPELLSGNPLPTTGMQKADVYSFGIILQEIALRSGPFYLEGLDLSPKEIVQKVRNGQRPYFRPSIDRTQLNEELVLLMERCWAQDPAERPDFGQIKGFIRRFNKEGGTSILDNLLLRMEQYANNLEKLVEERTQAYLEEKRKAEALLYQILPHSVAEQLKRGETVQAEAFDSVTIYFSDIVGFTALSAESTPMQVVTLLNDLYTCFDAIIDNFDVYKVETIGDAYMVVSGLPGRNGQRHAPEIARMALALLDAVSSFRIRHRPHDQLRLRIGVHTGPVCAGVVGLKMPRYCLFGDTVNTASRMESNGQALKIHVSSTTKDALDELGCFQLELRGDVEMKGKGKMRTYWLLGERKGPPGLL


Target: T1, natriuretic peptide receptor-B
Assay: cell-based or functional assay

EC50 group, cGMP in GTM-3 cells [µM] | Binder
≤ 15 | Hexanoyl-[Ebe][dP]FGLKIDRIS[Ebe]-NH2 [JAL-0534]
≤ 5 | Hexanoyl-A[dA]FGLKLDRISA-NH2 [JAL-0536]
≤ 5 | Octanoyl-[Sni][NMeF][dNle]LPLDRI-NH2 [JAL-1022]
≤ 15 | [Occ]AFVLPLDRI-NH2 (not fully specified (residues 2, 4); printed as Occ-ala-Phe-val-Leu-Pro-Leu-Asp-Arg-Ile-NH2) [JAL-1012]
≤ 15 | Hexanoyl-S[dA]FGLKLDRISS-NH2 [JAL-0535]
≤ 5 | Octanoyl-[dA]F[dDap]LPLDRI-NH2 [JAL-1020]
≤ 15 | [Occ]A[Phe(3-CF3)]GLPLDRI-NH2 (not fully specified (residue 2); printed as Occ-ala-Mtf-Gly-Leu-Pro-Leu-Asp-Arg-Ile-NH2) [JAL-1005]
≤ 5 | Octanoyl-[dA]F[dNle]L[Hyp]LDRI-NH2 [JAL-1025]
≤ 15 | [Occ]A[3Thi]GLPLDRI-NH2 (not fully specified (residue 2); printed as Occ-ala-Thk-Gly-Leu-Pro-Leu-Asp-Arg-Ile-NH2) [JAL-1003]
≤ 5 | [Occ][Sni]FGL[Hyp][NMeL]DRI-NH2 [JAL-1015]
≤ 15 | [Occ]AFGLPLDR[Tle]-NH2 (not fully specified (residue 2); printed as Occ-ala-Phe-Gly-Leu-Pro-Leu-Asp-Arg-Tbg-) [JAL-0989]
≤ 15 | [Occ]AFGIPLDRI-NH2 (not fully specified (residue 2); printed as Occ-ala-Phe-Gly-Ile-Pro-Leu-Asp-Arg-Ile-NH2) [JAL-0995]
≤ 15 | [Occ]AFG[Nva]PLDRI-NH2 (not fully specified (residue 2); printed as Occ-ala-Phe-Gly-Nva-Pro-Leu-Asp-Arg-Ile-NH2) [JAL-0996]
≤ 15 | [Occ]AFG[hLeu]PLDRI-NH2 (not fully specified (residue 2); printed as Occ-ala-Phe-Gly-Hle-Pro-Leu-Asp-Arg-Ile-NH2) [JAL-0998]
≤ 5 | [Occ]AF[nle]LPLDRI-NH2 (not fully specified (residue 2); printed as Occ-ala-Phe-nle-Leu-Pro-Leu-Asp-Arg-Ile-NH2; reading uncertain) [JAL-1014]
≤ 5 | [Occ]AFGL[Hyp][NMeL]DRI-NH2 (not fully specified (residue 2); printed as Occ-ala-Phe-Gly-Leu-Hyp-Nml-Asp-Arg-Ile-) [JAL-1016]
≤ 15 | [Occ]A[Phe(4-Cl)]GLPLDRI-NH2 (not fully specified (residue 2); printed as Occ-ala-Pcf-Gly-Leu-Pro-Leu-Asp-Arg-Ile-NH2) [JAL-1002]
≤ 1 | Octanoyl-[Sni]F[dNle]L[Hyp]LDRI-NH2 [JAL-1024]
≤ 5 | [Occ]AFSLPLDRI-NH2 (not fully specified (residues 2, 4); printed as Occ-ala-Phe-ser-Leu-Pro-Leu-Asp-Arg-Ile-NH2) [JAL-1010]
≤ 15 | [Occ]A[2Thi]GLPLDRI-NH2 (not fully specified (residue 2); printed as Occ-ala-Thi-Gly-Leu-Pro-Leu-Asp-Arg-Ile-NH2) [JAL-1000]
≤ 5 | Octanoyl-[dA]F[dAbu]LPLDRI-NH2 [JAL-1019]
≤ 5 | [Occ]AFTLPLDRI-NH2 (not fully specified (residues 2, 4); printed as Occ-ala-Phe-thr-Leu-Pro-Leu-Asp-Arg-Ile-NH2) [JAL-1011]
≤ 5 | [Occ]AF[asn]LPLDRI-NH2 (not fully specified (residue 2); printed as Occ-ala-Phe-asn-Leu-Pro-Leu-Asp-Arg-Ile-NH2; reading uncertain) [JAL-1017]
≤ 5 | Octanoyl-[dA]F[dL]L[Hyp]LDRI-NH2 [JAL-1026]
≤ 5 | Octanoyl-[Sni]F[dNle]LPLDRI-NH2 [JAL-1021]
≤ 5 | [Occ]AF[leu]LPLDRI-NH2 (not fully specified (residue 2); printed as Occ-ala-Phe-leu-Leu-Pro-Leu-Asp-Arg-Ile-NH2; reading uncertain) [JAL-1013]
≤ 15 | [Occ]AFGLPL[hSer]RI-NH2 (not fully specified (residue 2); printed as Occ-ala-Phe-Gly-Leu-Pro-Leu-Hse-Arg-Ile-NH2) [JAL-0993]
≤ 15 | [Occ]AFGLPLSRI-NH2 (not fully specified (residue 2); printed as Occ-ala-Phe-Gly-Leu-Pro-Leu-Ser-Arg-Ile-NH2) [JAL-0992]
≤ 5 | Octanoyl-[dA]F[dM]LPLDRI-NH2 [JAL-1018]
≤ 15 | [Occ]A[Phe(3-Me)]GLPLDRI-NH2 (not fully specified (residue 2); printed as Occ-ala-Mmf-Gly-Leu-Pro-Leu-Asp-Arg-Ile-NH2) [JAL-1006]
